Results taken from publication PMC4166121, “Endothelial nitric oxide synthase is regulated by ERK phosphorylation at Ser^602” (Bioscience Reports, 2014).

Target: T1, biotinylated calmodulin (UniProt P0DP23 1-149, biotin (biotinylated; site not stated))
T1 construct: calmodulin (CaM); experiments done 'essentially as described in [27]'; Held by its biotin on streptavidin sensors (BLI) or a biotin CAPture chip (SPR); also called CaM; biotinylated CaM
Assay: BLI; biotinylated CaM immobilised on streptavidin sensors; eNOS 0, 10.9, 31.9, 43.7 and 87.5 nM as analyte; 180 s association, 180 s dissociation; 10 mM HEPES pH 7.4, 100 mM NaCl, 10% glycerol, 10 uM CaCl2, 0.05% surfactant P-20; 25°C; global single-state fit
Conditions: both partners purified

B1: endothelial nitric oxide synthase phosphorylated by ERK (enzyme)
chain: MGNLKSVGQEPGPPCGLGLGLGLGLCGKQGPASPAPEPSRAPAPATPHAPDHSPAPNSPTLTRPPEGPKFPRVKNWELGSITYDTLCAQSQQDGPCTPRCCLGSLVLPRKLQTRPSPGPPPAEQLLSQARDFINQYYSSIKRSGSQAHEERLQEVEAEVASTGTYHLRESELVFGAKQAWRNAPRCVGRIQWGKLQVFDARDCSSAQEMFTYICNHIKYATNRGNLRSAITVFPQRAPGRGDFRIWNSQLVRYAGYRQQDGSVRGDPANVEITELCIQHGWTPGNGRFDVLPLLLQAPDEAPELFVLPPELVLEVPLEHPTLEWFAALGLRWYALPAVSNMLLEIGGLEFSAAPFSGWYMSTEIGTRNLCDPHRYNILEDVAVCMDLDTRTTSSLWKDKAAVEINLAVLHSFQLAKVTIVDHHAATVSFMKHLDNEQKARGGCPADWAWIVPPISGSLTPVFHQEMVNYILSPAFRYQPDPWKGSATKGAGITRKKTFKEVANAVKISASLMGTLMAKRVKATILYASETGRAQSYAQQLGRLFRKAFDPRVLCMDEYDVVSLEHEALVLVVTSTFGNGDPPENGESFAAALMEMSGPYNSSPRPEQHKSYKIRFNSVSCSDPLVSSWRRKRKESSNTDSAGALGTLRFCVFGLGSRAYPHFCAFARAVDTRLEELGGERLLQLGQGDELCGQEEAFRGWAKAAFQASCETFCVGEEAKAAAQDIFSPKRSWKRQRYRLSTQAEGLQLLPGLIHVHRRKMFQATVLSVENLQSSKSTRATILVRLDTAGQEGLQYQPGDHIGICPPNRPGLVEALLSRVEDPPPPTESVAVEQLEKGSPGGPPPSWVRDPRLPPCTLRQALTFFLDITSPPSPRLLRLLSTLAEEPSEQQELETLSQDPRRYEEWKWFRCPTLLEVLEQFPSVALPAPLLLTQLPLLQPRYYSVSSAPNAHPGEVHLTVAVLAYRTQDGLGPLHYGVCSTWLSQLKTGDPVPCFIRGAPSFRLPPDPYVPCILVGPGTGIAPFRGFWQERLHDIESKGLQPAPMTLVFGCRCSQLDHLYRDEVQDAQERGVFGRVLTAFSREPDSPKTYVQDILRTELAAEVHRVLCLERGHMFVCGDVTMATSVLQTVQRILATEGDMELDEAGDVIGVLRDQQRYHEDIFGLTLRTQEVTSRIRTQSFSLQERHLRGAVPWAFDPPGPDTPGP
modifications: phosphothreonine at 46, phosphoserine at 58, phosphoserine at 602 (by ERK in vitro; 2-3 phosphates per monomer; phosphorylation incomplete, at least 75%)
notes: endothelial nitric oxide synthase (eNOS); the residue numbers used (Thr46, Ser58, Ser602; Ser602 = human Ser600) are those of bovine eNOS; Same protein as m2 after the ERK kinase reaction (20 mM Hepes pH 7.4, 1 mM DTT, 10 mM MgCl2, 1 mM ATP, 10% glycerol, room temperature); also called ERK phosphorylated eNOS; phosphorylated eNOS
**Q.** With B1 as the binder, how does the koff read?
**A.** 0.00033 s⁻¹
